Source: article PMC2670979

Assays:
GST-Miro1 WT = GST-Miro1 WT (UniProt Q8IXI2); experiment: pull-down; as a5 but at 5 uM [Ca2+]free; band normalised to the level in 0 Ca2+
GST-Miro1 ΔEF = GST-Miro1 ΔEF (UniProt Q8IXI2); experiment: as above
GST-Miro1 ΔEF, sequence (Q8IXI2 whole entry E208K/E328K): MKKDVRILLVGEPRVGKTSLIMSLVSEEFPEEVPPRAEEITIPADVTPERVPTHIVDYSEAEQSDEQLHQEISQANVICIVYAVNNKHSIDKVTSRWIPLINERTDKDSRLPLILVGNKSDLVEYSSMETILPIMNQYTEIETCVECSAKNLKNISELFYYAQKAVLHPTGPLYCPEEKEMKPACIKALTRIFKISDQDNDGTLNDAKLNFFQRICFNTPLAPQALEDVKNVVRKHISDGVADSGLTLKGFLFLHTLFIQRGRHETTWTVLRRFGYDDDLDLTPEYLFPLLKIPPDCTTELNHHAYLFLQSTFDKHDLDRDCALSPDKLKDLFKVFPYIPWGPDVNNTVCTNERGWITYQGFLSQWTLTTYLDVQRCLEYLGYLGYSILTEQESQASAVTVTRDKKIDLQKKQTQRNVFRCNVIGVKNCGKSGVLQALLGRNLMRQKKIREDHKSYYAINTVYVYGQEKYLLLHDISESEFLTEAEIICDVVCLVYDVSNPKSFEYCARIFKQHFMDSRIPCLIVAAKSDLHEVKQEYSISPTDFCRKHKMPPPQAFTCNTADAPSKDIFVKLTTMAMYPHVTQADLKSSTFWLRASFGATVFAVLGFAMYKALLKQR

KIF5 motors (endogenous, detected using a pan-KIF5 antibody), sequence (Q2PQA9 whole entry): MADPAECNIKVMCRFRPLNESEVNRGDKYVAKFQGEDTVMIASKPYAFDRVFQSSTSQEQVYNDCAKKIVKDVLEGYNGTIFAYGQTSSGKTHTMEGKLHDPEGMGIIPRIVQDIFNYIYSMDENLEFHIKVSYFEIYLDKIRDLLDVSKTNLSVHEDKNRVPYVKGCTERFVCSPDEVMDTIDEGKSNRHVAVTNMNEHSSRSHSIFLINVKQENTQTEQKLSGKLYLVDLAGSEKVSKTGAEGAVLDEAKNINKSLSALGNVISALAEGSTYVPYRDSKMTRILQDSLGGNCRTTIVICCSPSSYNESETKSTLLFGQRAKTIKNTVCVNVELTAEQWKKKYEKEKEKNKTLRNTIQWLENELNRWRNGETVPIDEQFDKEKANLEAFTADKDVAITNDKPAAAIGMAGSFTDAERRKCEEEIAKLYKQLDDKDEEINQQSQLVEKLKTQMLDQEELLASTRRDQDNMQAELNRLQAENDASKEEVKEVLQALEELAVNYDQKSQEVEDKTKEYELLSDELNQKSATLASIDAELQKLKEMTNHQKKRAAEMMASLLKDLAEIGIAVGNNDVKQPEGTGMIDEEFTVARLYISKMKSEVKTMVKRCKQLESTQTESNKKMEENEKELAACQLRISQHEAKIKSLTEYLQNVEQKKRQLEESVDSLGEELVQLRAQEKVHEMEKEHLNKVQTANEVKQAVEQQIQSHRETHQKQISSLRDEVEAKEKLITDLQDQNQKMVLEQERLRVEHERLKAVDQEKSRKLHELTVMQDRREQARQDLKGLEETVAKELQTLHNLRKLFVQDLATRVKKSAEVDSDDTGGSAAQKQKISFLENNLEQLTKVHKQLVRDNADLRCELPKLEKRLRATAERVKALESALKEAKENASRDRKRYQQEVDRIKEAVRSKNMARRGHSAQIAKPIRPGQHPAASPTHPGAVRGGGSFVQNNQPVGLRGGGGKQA
GST-Miro1 WT, sequence (Q8IXI2 whole entry): as the sequence (Q8IXI2 whole entry E208K/E328K) above, with K208E, K328E counted along it

**Q.** Which results are given for “KIF5 motors (endogenous, detected using a pan-KIF5 antibody) (from UniProt Q2PQA9 1-963) (natural protein)”?
**A.** percent of the level in 0 [Ca2+], at 5 uM [Ca2+]free (GST-Miro1 WT): 15%; percent of the level in 0 [Ca2+], at 5 uM [Ca2+] (GST-Miro1 ΔEF): 87%
